Test results reported in patent US20050276757.

Columns and labels:
[1] = molecular target: p120 catenin expressed from a transfected plasmid (exogenous p120, HA-tagged in Example 1)
[2] = molecular target: Myelin Basic Protein
[3] = molecular target: Flag-tagged Abi-1 expressed from pCMV-Flag-Abi1, Q8IZP0
Chain of Flag-tagged Abi-1 expressed from pCMV-Flag-Abi1, Q8IZP0 (Q8IZP0 whole entry, looked up): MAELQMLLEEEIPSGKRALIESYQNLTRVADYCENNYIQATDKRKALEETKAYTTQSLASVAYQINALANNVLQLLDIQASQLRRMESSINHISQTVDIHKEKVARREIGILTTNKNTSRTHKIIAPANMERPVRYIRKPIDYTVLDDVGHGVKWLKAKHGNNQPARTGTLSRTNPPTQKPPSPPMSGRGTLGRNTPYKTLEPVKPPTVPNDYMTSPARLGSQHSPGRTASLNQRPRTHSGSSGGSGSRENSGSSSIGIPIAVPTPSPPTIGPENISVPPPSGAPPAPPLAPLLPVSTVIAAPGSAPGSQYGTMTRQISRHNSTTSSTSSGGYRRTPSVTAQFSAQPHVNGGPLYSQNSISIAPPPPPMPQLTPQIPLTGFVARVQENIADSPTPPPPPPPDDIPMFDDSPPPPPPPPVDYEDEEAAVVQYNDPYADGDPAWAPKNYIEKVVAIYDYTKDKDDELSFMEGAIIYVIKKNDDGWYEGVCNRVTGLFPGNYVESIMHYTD

B1: purified GST-ZC1 kinase domain (protein)
chain: MANDSPAKSLVDIDLSSLRDPAGIFELVEVVGNGTYGQVYKGRHVKTGQLAAIKVMDVTEDEEEEIKLEINMLKKYSHHRNIATYYGAFIKKSPPGHDDQLWLVMEFCGAGSITDLVKNTKGNTLKEDWIAYISREILRGLAHLHIHHVIHRDIKGQNVLLTENAEVKLVDFGVSAQLDRTVGRRNTFIGTPYWMAPEVIACDENPDATYDYRSDLWSCGITAIEMAEGAPPLCDMHPMRALFLIPRNPPPRLKSKKWSKKFFSFIEGCLVKNYMQRPSTEQLLKHPFIRDQPNERQVRIQLKDHIDRTRKKRGEKDETEYEYSGSEE
With B1 the “in vitro phosphorylation (32P-ATP, autoradiography; gel mobility shift)” value [1] was “added purified recombinant ZC1 enzyme induced phosphorylation of p120”.

B2: kinase domain of ZC3 fused to GST (protein)
chain: MGDPAPARSLDDIDLSALRDPAGIFELVEVVGNGTYGQVYKGRHVKTGQLAAIKVMDVTEDEEEEIKQEINMLKKYSHHRNIATYYGAFIKKSPPGNDDQLWLVMEFCGAGSVTDLVKNTKGNALKEDCIAYICREILRGLAHLHAHKVIHRDIKGQNVLLTENAEVKLVDFGVSAQLDRTVGRRNTFIGTPYWMAPEVIACDENPDATYDYRSDIWSLGITAIEMAEGAPPLCDMHPMRALFLIPRNPPPRLKSKKWSKKFIDFIDTCLIKTYLSRPPTEQLLKFPFIRDQPTERQVRIQLKDHIDRSRKKRGEKEETE
B2 was tested, and the “in vitro phosphorylation (32P-ATP, autoradiography)” value [2] was “MBP is known to be a good in vitro substrate for ZC3 and is indeed strongly phosphorylated” and the “in vitro phosphorylation (32P-ATP, autoradiography)” value [3] was “A strongly phosphorylated band corresponding to Abi-1 appears in the sample containing immunoprecipitated Abi-1 and GST-ZC3KD”.
